For this assay, the target named is SARS-CoV-2 Omicron-S (SARS-CoV-2) (UniProt P0DTC2). The assay can be described thus: cryo-EM structure.

Stoichiometry N data for one substance are collected here from publication PMC9080080.

On to “SARS-CoV-2 Omicron-S (from UniProt P0DTC2 340-527) (natural protein)”, for which the stoichiometry N amounted to 3.
